Results taken from article PMC5681996.

B1: (UG)8 (ssRNA)
RNA: UGUGUGUGUGUGUGUG
B2: (UG)4 (ssRNA)
RNA: UGUGUGUG
B3: (UGGAA)4 (ssRNA)
RNA: UGGAAUGGAAUGGAAUGGAA
B4: (UGGAA)8 (ssRNA)
RNA: UGGAAUGGAAUGGAAUGGAAUGGAAUGGAAUGGAAUGGAA

Tests used:
TDP-43 WT [1] = target: T1, TDP-43 WT (UniProt Q13148 1-414); assay: EMSA
TDP-43 WT [2] = target: T1, TDP-43 WT; assay: CD
TDP-43 WT [3] = target: T1, TDP-43 WT; assay: CD; remark: listed apart in the source

T1 sequence (Q13148 whole entry): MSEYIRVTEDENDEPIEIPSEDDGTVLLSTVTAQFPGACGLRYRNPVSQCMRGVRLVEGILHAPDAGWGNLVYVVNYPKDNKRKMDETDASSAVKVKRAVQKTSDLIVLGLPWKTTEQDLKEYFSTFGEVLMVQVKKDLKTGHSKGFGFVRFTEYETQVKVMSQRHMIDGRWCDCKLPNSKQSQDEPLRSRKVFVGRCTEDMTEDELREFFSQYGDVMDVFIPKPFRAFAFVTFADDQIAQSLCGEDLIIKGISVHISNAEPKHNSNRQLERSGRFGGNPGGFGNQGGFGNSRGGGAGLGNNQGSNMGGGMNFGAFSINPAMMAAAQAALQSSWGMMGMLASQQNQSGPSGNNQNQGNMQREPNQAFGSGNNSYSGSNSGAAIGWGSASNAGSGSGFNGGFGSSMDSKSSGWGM

| Binder | binding result (TDP-43 WT [1]) | further results |
| --- | --- | --- |
| B1 | binds | – |
| B2 | – | binding result (TDP-43 WT [2]): binds |
| B3 | – | binding result (TDP-43 WT [3]): binds |
| B4 | binds | – |
